# Tested on: MS2 coat protein
# Assay: apparent KD of MS2 coat protein; designed switch direction (-1 OFF switch, 1 ON switch): -1; higher = weaker reporter binding
# How it was run: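 Designed RNA switches were transcribed on Illumina chips by stalled E. coli RNA polymerase and titrated with SNAP-549-labelled MS2 coat protein from 0.7 or 1.5 nM, doubling to 3 µM. Step length ran from 0.8–1.5 h at the lowest concentration to 10–20 min at the highest. The apparent KD is the median over clusters for each design, from curve-fitted normalised cluster fluorescence.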
# [1] = input ligand: microRNA oligo, concentration not stated
# [2] = Eterna round: R95, input ligand: microRNA oligo, concentration not stated
# [3] = Eterna round: R95, input ligand: FMN 200 uM
# [4] = Eterna round: R95, input ligand: none
Sequence,apparent KD of MS2 coat protein (input ligand: FMN 200 uM),apparent KD of MS2 coat protein [1],apparent KD of MS2 coat protein (input ligand: none),apparent KD of MS2 coat protein [2],apparent KD of MS2 coat protein [3],apparent KD of MS2 coat protein [4]
"GACGACUCGUCAGGAUAUGUAAACGAGCAAUUGACAGAAGGGACACUGUCGAGGGUACACAUGAGGAUCACCCAUGUACUCGUC [Eternabot solution 40] (Eterna round: R96, puzzle: Exclusion NG 1)",12.4 nM,10.3 nM,16.1 nM,–,–,–
"UAAACAAGCGAAAGAUCCCACAUGAGGAUCACCCAUGUGCUCGUCUUAUAAGGUACUGUGACGAAAGUCACGGUACC [Sensor 3, v1 - 91 v19] (Eterna round: R97, puzzle: Sensor, turn-off variant 1)",37.9 nM,–,41 nM,–,–,–
CCCUCACAUGAGGAUCACCCAUGUCAGGAUAUUCAAAGCGCAAAUGCGCCAAAUGCAGGAAGAAGGGACGUGCC [Bisoar] (puzzle: Exclusion 1),–,–,–,13.3 nM,–,–
"AAUACAAGCUAUUGAUCCCACAUGAGGAUCACCCAUGUAGGAGGCCGUGAGACCUCCUUUACGAUAGCUCGUCUUAU [Sensor-V1 #52] (Eterna round: R97, puzzle: Sensor, turn-off variant 1)",211 nM,–,208 nM,–,–,–
"ACAACAAGCUUUUUGAACGUAGAACAUGAAGCUCUAGUCACAUGAGGAUCACCCAUGUCAGCCAGUUAGAUAGGUGA [JR_SV3TOV2_Sub065] (puzzle: Sensor v3, turn-off variant 2)",–,–,–,49 nM,64.5 nM,51.2 nM
"AGAUUAAAAGUAAGGAUAUGAUGCAGGAAACUGCGUCAGAAGGUACAUGAGGAUCACCCAUGUUAAACUAAUUU [Explosion 6 - Jieux - Brourd's mod of Exclusion 4] (Eterna round: R97, puzzle: Brourd's mod of Exclusion 4)",19.4 nM,–,14.4 nM,–,–,–
AGAAGACAUGAGGAUCACCCAUGUAAGGAUAUCGAAGGUAAGAGAGGAAAGAAGGGAACGAGAAGGUACAGGUG [JR_Exclu1_Sub096] (puzzle: Exclusion 1),–,–,–,107 nM,91.6 nM,156 nM
"CGAAGUAGAAACCGAUCCUACAUGAGGAUCACCCAUGUAGCAAGACGUGCACGCGAAGCUCGUCAGACUACCAGAAG [salish99_TOv1_r3_004] (puzzle: Sensor v3, turn-off variant 1)",–,–,–,352 nM,343 nM,332 nM
UUUUUGUGAGGAUAUACGUAGUAGAACAAUAGUACUACUACGUAGAAGGCACAUGAGGAUCACCCAUGUUCCUC [Fiskers Ex 4 Super stable 44 mod 14] (puzzle: Exclusion 4),–,–,–,45.2 nM,–,–
"UCGAUGUGAGGAUAUAUAUGCAGUAGUCCUUGUGUUUUAUAACUUGAGGAUCACCCAAGUAGAAGGCGCGACGU [JR_Ex2_Sub059] (Eterna round: R97, puzzle: Exclusion 2)",37 nM,–,33.5 nM,–,–,–
UGGUGUGAAGGAUAUACAUGAGGAUCACCCAUGUAUGAGGUGUGUGUUGAGGUGGAGGGUAGAAGGUCAGGUGG [JR_Exclusion3_Sub013] (puzzle: Exclusion 3),–,–,–,32.2 nM,–,–
"AUAAUGUAAGGAUAUCAGUCGACUAGCGAUAGCUAGUCGACUGAGAAGGUACAUGAGGAUCACCCAUGUGAAUA [E4/16-A4] (Eterna round: R97, puzzle: Exclusion 4)",213 nM,–,46 nM,–,–,–
"GCAGCAUAGUAAACAUACUGUUACAUGAGGAUCACCCAUGUACAGGAUAUGGUCUGGAUUACAGGCCAGAAGGGUACAAGCUGC [Eli exng3 - 023] (Eterna round: R96, puzzle: Exclusion NG 3)",8.36 nM,13 nM,12.8 nM,–,–,–
"UUUAAUUGUGACAUGGGUGACAUGAGGAUCACCCAUGUCACAAGCUUUUUGUUCGUCUUAUAAUUAACCCAUGUCAC [Stov1/13-B1] (Eterna round: R97, puzzle: Sensor, turn-off variant 1)",37.8 nM,–,123 nM,–,–,–
"CAGUACUACAAGCUAUGGGACAUGAGGAUCACCCAUGUUCGUCUUAUUGAUCUAGGUACGCUGACGUACCUAGAUCU [JL-sv1-2.19 Brourd mod] (puzzle: Sensor v3, turn-off variant 1)",–,–,–,27.8 nM,16.9 nM,15.9 nM
CAGGACAGAGGAUAUACAUAGAUACAGAUUCAUGUAGAACUACAUGAGGAUCACCCAUGUAGAAGGCUGUCCUG [Fiskers Ex 2 - 3] (puzzle: Exclusion 2),–,–,–,27.8 nM,–,–
AUUAGUAUCUAGGAUAUCUAGUACAUAGUAUCUAGAGAAGGAGAUACAUGAGGAUCACCCAUGUUCUGUGAUCU [Exclusion 6 - 2:a] (puzzle: Exclusion 6),–,–,–,155 nM,–,–

Sequence,apparent KD of MS2 coat protein (input ligand: FMN 200 uM),apparent KD of MS2 coat protein [1],apparent KD of MS2 coat protein (input ligand: none),apparent KD of MS2 coat protein [2],apparent KD of MS2 coat protein [3],apparent KD of MS2 coat protein [4]
"UCUGGUCGAGGAUAUACAUGAGGAUCACCCAUGUUGAUCAACUGCCGAUAGGCAGAAUGUAGAAGGCGACCAGA [E3/7-A3] (Eterna round: R97, puzzle: Exclusion 3)",176 nM,–,865 nM,–,–,–
"UCACGGGAUUGAGGAUAUAUAUAAAUUUAUACAAUAGAAGGCAAAUUUUUAGUUUUUUCACUUUACAUGAGGAUCACCCAUGUU [JR_ExcBG1_Sub083] (Eterna round: R96, puzzle: Exclusion NG 1)",–,20.1 nM,–,–,–,–
CAAAACCUAGGAUAUACAUGAGGAUCACCCAUGUCGGGCCUACGCGAAACGCGCCUCAGUAGAAGGAGGGAAAC [Riri] (puzzle: Exclusion 3),–,–,–,46.8 nM,180 nM,70.5 nM
"UUAAAUCAUGUAGGAUAUGCGUGGCGAAGCUAUGCAGAAGGACAUGAGGAUCACCCAUGUUCUAGCGUCUGCGAACAGAUGCAA [Mat - Exclusion NG 1 - Mod of JL - D1] (Eterna round: R96, puzzle: Exclusion NG 1)",120 nM,12.2 nM,16.9 nM,–,–,–
"CAUGUGUUAGGAUAUGCACAGAUCUCCUAAUGGAGAUCUGUGCAGAAGGGACAUGAGGAUCACCCAUGUUGAUG [Mod of Brourd 14 - Jieux - Exclusion 4] (Eterna round: R97, puzzle: Exclusion 4)",78.6 nM,–,48.6 nM,–,–,–
"UAUUGCAAGUGAGGAUAUGACAUGAGGAUCACCCAUGUAAAGGGAGUUGGCUAUAUAGCAAGAUUUCAGAAGGCACUACUGUAU [JR_ExcNG2_Sub006] (Eterna round: R96, puzzle: Exclusion NG 2)",133 nM,32.6 nM,56.3 nM,–,–,–
"UGAGUGCUGCGAGGAUAUACAUGAGGAUCACCCAUGUUUUCCUGUGAGGCAUAGCCUCACAGGAUGUAGAAGGCGCAGUACUCU [Mat - Exclusion NG 2 - Mod of JL - D28] (Eterna round: R96, puzzle: Exclusion NG 2)",10.6 nM,8.03 nM,13.8 nM,–,–,–
"UCACUACCGCAAGGAUAUGUUGUCUGACACGCUGCGUGACAUGAGGAUCACCCAUGUGCUAGUUCGCAGAAGGUGCGGAAUGUG [Eternabot solution 34] (Eterna round: R96, puzzle: Exclusion NG 2)",63.2 nM,9.98 nM,17.1 nM,–,–,–
AGAAGACAUGAGGAUCACCCAUGUAAGGAUAUCGGAGGUAAGGGAGGAAGGAGAUAGGCGAGAAGGUACAGGUG [JR_Exclu1_Sub093] (puzzle: Exclusion 1),–,–,–,53.1 nM,39 nM,51.7 nM
"AGCUGUGGCCGAGGAUAUCUAAACUCAAUAACCGAAAUAUAAUCGGACAUGAGGAUCACCCAUGUAGAGAAGGCGGUCUCAGCA [Eli eng2 - 081] (Eterna round: R96, puzzle: Exclusion NG 2)",–,28 nM,–,–,–,–
"UAUAUAUAGUAAGGAUAUGUAUUUCUUUUAUAAACAGAAGGUACUGACAUGAGGAUCACCCAUGUUUUAGUGUGGGCAUGUAGA [JMF's solution 12] (Eterna round: R96, puzzle: Exclusion NG 1)",–,63.1 nM,–,–,–,–
AUAUUAAGUGUGAGGAUAUGCUGGUCCUUGGAUCAGCAGAAGGCACAUGAGGAUCACCCAUGUAAUAUAUUUAA [Mat - Exclusion 4 - JL Mod - D48] (puzzle: Brourd's mod of Exclusion 4),–,–,–,87.2 nM,–,–
"AAGAAGAAGUAAGGAUAUGAAGAUCUGGUGGUGACAUGAGGAUCACCCAUGUGAAAACGAUAAGAUCAGAAGGUAUAAGAAGAA [AK ExNG2-3.2] (Eterna round: R96, puzzle: Exclusion NG 2)",86.8 nM,48.4 nM,85.8 nM,–,–,–
"GGGCUGGGAGGAUAUUCGUUUGGAGACAUGAGGAUCACCCAUGUGAUGCGAGGGAAGUCCGGAGAAGGCUCGGUUC [-24.8, -21.2 kcal, 22% A] (Eterna round: R97, puzzle: Exclusion 5)",24 nM,–,15.9 nM,–,–,–
"AUAAAGCAAGCAUGAUCCCACAUGAGGAUCACCCAUGUGUUCGUCUUAUAGGCUGCUGAGGCUUUUGCCUCGGUGGC [LRO Sensor-off var1-06 loose mod of D91 from Mat747] (Eterna round: R97, puzzle: Sensor, turn-off variant 1)",69 nM,–,67.9 nM,–,–,–
"CGCACACAUGAGGAUCACCCAUGUGAGGAUAUCAUGCUUCGUAGUAAACUACGAAGUGUGAGAAGGCACAUGCA [Omei Ex1 D6] (Eterna round: R97, puzzle: Exclusion 1)",169 nM,–,44.4 nM,–,–,–
"GGGCCUUUGGUCAGGAUAUCUUAUUCCAGACUAUAGGAGAAGGGACUUGAGGAUCACCCAAGUAAAAUGAAAAC [Dizadi] (Eterna round: R97, puzzle: Brourd's mod of Exclusion 4)",23.3 nM,–,24 nM,–,–,–

# From the supplement of paper PMC9170038
